Measured values published in patent US11844813 (ST ANNA KINDERKREBSFORSCHUNG, dated 2023).
Changes are numbered by the printed parent chain.

Assays:
[1] = molecular target: T1, Human His-tagged RBP4 (residues 19-201), soluble (human, UniProt P02753 19-201); assay: yeast surface display, flow cytometry: soluble His-tagged RBP4 titrated on yeast displaying the binder, anti-penta-His detection, with 5 µM A1120; mean of three
From the text: (§1) "a" can be part of a soluble protein (secreted or exogenously added) or of a transmembrane construct and "c" can be part of a signal transducing construct (shown in A and B). Of course, "a" and "c" can be integrated in the constructs vice versa (not shown). There are many more possible arrangements (not shown). […] RBP4-binding was detected with an anti-penta-His antibody and subsequently analyzed by flow cytometry.

[2] = molecular target: T1, Human His-tagged RBP4 (residues …); assay: yeast display, + A1120; mean ± S.D., n=3
[3] = molecular target: T1, Human His-tagged RBP4 (residues …); assay: yeast surface display, flow cytometry: soluble His-tagged RBP4 titrated on yeast displaying the binder, anti-penta-His detection, with 5 µM A1120
From the text: as §1

[4] = molecular target: T1, Human His-tagged RBP4 (residues …); assay: ITC, + A1120; mean ± S.D., n=4
Method: (§2) The samples were centrifuged (17000 g, 10 min, 20° C.) and dialysed against the same buffer (PBS). RBP4 protein solution was applied to the sample cell and the respective RBP4 binding interaction partners were titrated with varying intervals. Different concentrations both for RBP4 and RBP4 binding interaction partners were used. […] Data analysis was performed with the MicroCal PEAQ-ITC analysis software and the resulting data were fitted to a one-set-of-sites binding model. […] The integrated data were fitted to one-set-of-sites binding model to calculate the K_D values in FIG. 18.

[5] = molecular target: T1, Human His-tagged RBP4 (residues …); assay: ITC, -A1120; mean ± S.D., n=4
Method: as §2

[6] = molecular target: T1, Human His-tagged RBP4 (residues …); assay: ITC; ratio of the KD without to the KD with A1120
Method: as §2

[7] = molecular target: T1, Human His-tagged RBP4 (residues …); assay: yeast surface display, flow cytometry: soluble His-tagged RBP4 titrated on yeast displaying the binder, anti-penta-His detection, with 5 µM A1120; mean of three; remark: listed apart in the source
Method: All small molecules were present at a concentration of 5 µM. RBP4-binding was detected with an anti-penta-His antibody and subsequently analyzed by flow cytometry.

[8] = molecular target: T1, Human His-tagged RBP4 (residues …); assay: SPR, + A1120; mean ± S.D., n=4
Method: (§3) The antigen (RBP4) was coated onto a CM5 chip (GE Healthcare) and incubated with various concentrations of lipocalin-fold binding interaction partner solution in HBS-EP (GE Healthcare), followed by a dissociation phase in HBS-EP. […] Finally, K_d values (dissociation constants) were obtained by steady-state analysis.

[9] = molecular target: T1, Human His-tagged RBP4 (residues …); assay: SPR, -A1120; mean ± S.D., n=4
Method: as §3

[10] = molecular target: T1, Human His-tagged RBP4 (residues …); assay: SPR (Biacore T200), single-cycle kinetics, RBP4 immobilised on a CM5 chip, RS3 injected at 6.25-100 nM, with 5 µM A1120; steady-state analysis; one representative experiment of four
Method: (§4) Applied concentrations of RS3 are indicated in the plots. […] Figure 17B: Figure 17C:
as §3

[11] = molecular target: T1, Human His-tagged RBP4 (residues …); assay: SPR (Biacore T200), single-cycle kinetics, RBP4 immobilised on a CM5 chip, RS3 injected at 937.5-15000 nM, without A1120; steady-state analysis; one representative experiment of four
Method: as §4, §3

B1: RF3, FN3-based lipocalin-fold binding interaction partner, displayed on the surface of yeast (designed binder)
chain: VSDVPRDLEVVAATPTSLLISWYYPNASHAGYYRITYGETGGNSPVQEFTVPFSIRYTIATISGLKPGVDYTITVYAVTASCQYCSYPISINYRTEIDKPSQ
notes: not shown: Yeast-display carrier of the pCTCON2 construct (Aga2p anchor, HA tag, linker, c-myc tag)
Kd [1]: 67 nM

B2: RF2, FN3-based lipocalin-fold binding interaction partner, displayed on the surface of yeast (designed binder)
chain: VSDVPRDLEVVAATPTSLLISWYYPNASHAGYYRITYGETGGNSPVQEFTVPFSIRYTIATISGLKPGVDYTITVYAVTDYAYYYRLSEPISINYRTEIDKPSQ
notes: as for B1
Kd [1]: 41.8 nM
Kd [2]: 65 nM
EC50 (read off the curve) [3]: ~40 nM

B3: RF2, FN3-based RBP4 binding interaction partner, soluble protein (designed binder)
chain: B2 chain
notes: Expressed in E. coli as His6-SUMO fusion; Monomeric by SEC
Kd [4]: 279 nM
Kd [5]: 4380 nM
KD,-A1120 / KD,+A1120 [6]: 16

B4: RF1, FN3-based lipocalin-fold binding interaction partner, displayed on the surface of yeast (designed binder)
chain: B2 chain with I35V, Y71H, L87S
notes: as for B1
Kd [1]: 169 nM
EC50 (read off the curve) [7]: ~6 nM

B5: RS2, rcSso7d-based lipocalin-fold binding interaction partner, displayed on the surface of yeast (designed binder)
chain: ATVKLTYQGEEKQVDISKIKRVARYGQGIYFDYGEGGGAWGYGSVSEKDAPKELLQMLEKQ
notes: not shown: Yeast display carrier of pCTCON2 (Aga2p, HA tag, linker, C-terminal c-myc tag)
Kd [1]: 2.9 nM
EC50 (read off the curve) [3]: ~3 nM

B6: RS3, rcSso7d-based lipocalin-fold binding interaction partner, displayed on the surface of yeast (designed binder)
chain: B5 chain with G28N, D32S, G34D, W40Y, G41D, S44A
notes: as for B5
Kd [1]: 11.5 nM
EC50 (read off the curve) [7]: ~20 nM
Kd [2]: 13 nM
EC50 (read off the curve) [3]: ~10 nM

B7: RS5, rcSso7d-based lipocalin-fold binding interaction partner, displayed on the surface of yeast (designed binder)
chain: B5 chain with L5F, K48E
notes: as for B1
Kd [1]: 69.5 nM
Kd [2]: 80 nM

B8: RS5, rcSso7d-based RBP4 binding interaction partner, soluble protein (designed binder)
chain: B5 chain with L5F, K48E
notes: as for B3
Kd [4]: 17 nM
Kd [5]: 3780 nM
Kd [8]: 38 nM
KD,-A1120 / KD,+A1120 [6]: 222
Kd [9]: 11000 nM

B9: RS4, rcSso7d-based lipocalin-fold binding interaction partner, displayed on the surface of yeast (designed binder)
chain: B5 chain with V3A, L5F, D32S, G34D, W40Y
notes: as for B5
Kd [1]: 47.6 nM

B10: RS1, rcSso7d-based lipocalin-fold binding interaction partner, displayed on the surface of yeast (designed binder)
chain: ATVKFTYQGEEEQVDISKIKKVARYGQNIYFSYDEGGGAWDYGGVSEKDAPKELLQMLEKQ
notes: as for B5
Kd [1]: 1.5 nM
EC50 (read off the curve) [3]: 1 to 2 nM

B11: RS3, rcSso7d-based RBP4 binding interaction partner, soluble protein (designed binder)
chain: B10 chain with F5L, E12K, K21R, W40Y, G44A
notes: as for B3
Kd [4]: 7 nM
Kd [5]: 2690 nM
Kd [8]: 9 nM
Kd [10]: 11 nM
KD,-A1120 / KD,+A1120 [6]: 384
Kd [9]: 4950 nM
Kd [11]: 6130 nM
